This is an account of results in the DeepSol protein solubility set.

The data set can be described thus: soluble on expression in E. coli; label from the status in PepcDB or PDB records.
Regarding “MDSENSSSHSISSPQMFQNTHNNSAMEDNLLSRPMNNESLQMIIGYLRRNGLTETEELLTREAGPVLRVEGSNGLPPEEAISVEFDTFVQHANDCTDVVQAEFSQLLFPIFAHSYIALIEKHAATARIFFNRFKIFIPECFSEFVYQLSLIEDAMTLRANEHVHILRENKFLVRLSRPTLKHLESIQTRVIGVKNIIAKHICIENADEVSTNRTTIETQMGGILGVTSKSDKRHKMMFSVLKDELMQNIEKRKTKGKDWKDMGKKMQTHCPQADRIPLPPISEHLREERRNWLRDVGKMAIISAESPVSICMYTTVNAPIGVASCDFTDDSSLIAMGLSDSSIVMNAMDPMNKMKKLRDMEFLDKIDIETADNVQSQMFDLQGSTTSVRYTGHGGPVFSVNFSPDRRLLISSAGDRTVRLWSMETQRNAVIYRTPAVAQFCSRGYYFATASADKTAAMWSTDRMHPLRIFADPYGDVGCIDYHPNCNYIAGGSDDRYVRVWDVCSGTRVRIFSGHKASIIAVKFSPCGRYIVSLDAIGNLMIWDLAYQRLVAAEITEQAGTKGSITFSRDGGVFAVSHGNSSIQLYSLDTLIGTVLAAGQNDSYIEPKVNLDGFNIGSYATKETAVIGLHFTRRNLLLGFGCFGQ”, the “soluble on expression in E. coli” value is “soluble”. In the case of “MDSHCRVRPAGPAVPADCDPPRITHAALAARLGDARLLTLYDQATWSEGPAWWEAQRTLVWSDLVGRRVLGWREDGTVDVLLDATAFTNGNAVDAQQRLVHCEHGRRAITRSDADGQAHLLVGRYAGKRLNSPNDLIVARDGAIWFTDPPFGLRKPSQGCPADPELAHHSVYRLPPDGSPLQRMADLDHPNGLAFSPDEQTLYVSQTPEQGHGSVEITAFAWRDGALHDRRHFASVPDGLPDGFCVDRGGWLWSSSGTGVCVFDSDGQLLGHIPTPGTASNCTFDQAQQRLFITGGPCLWMLPLP” it was “soluble”; in that of “MDSLKEAEIREVFREFDKNGDGRITRQELEVALLQLGEKASNSKIETMIEQADLDGNGCIDIDEFLNVLRRQICDPKEERELRDVFNVFDKNGDGVISIDDLIFVMCQLGEKLTETEAKEMIKQGDLDHDGMIDFQEFVNIIKGQ”, “soluble”. Turning to “MDSTMSEHADVLIVGGGPVGALAALRLARQGRSVLLLEARAKDAEVRDARALALSWHSRRLLEEAGAWPADLPATAIDTVHVSQQGGCGRTRLDSADLGLPHLGAVVDYPALVAGLGGALEAAGVQVIWQCRVTAVKSLSQYACAEVETPQGKQLLTGSLLVLAEGGALAETLPGIRRLTHDYRQCALLAEVETELPPQGVAYERFAHAGPFALLPHGERYMLVWTRSQADAERLAAADAAVLRDELQQAFGERQGRILSIGPRASFPLALRQANRVTSGRVALIGNAAQTMHPVAAQGLNLGLRDAVGLADALENAADAGDARALKRYADSRKLDSHAVVGFTHGLIKLFDGHHPLMSRLRGVGMTALDALPSLRRKFAGHLVFGVRGLEHHHHHH”, the “soluble on expression in E. coli” value is “soluble”.

On to “MDTLKRGKYAKFLHNYLVDNSSQRGYVLNLNAQWGAGKTYFINRWIDSIKDAHPVVYIDAWKQDYSDDPMLTVVSSIIDALEEHLPAGNKKAIALKNKATRFFKAAAPLLMKGLIKKATGMNIDDVEPETEKKEGSDLYNLTGEASAALAKCLIDDHNEKLKTVEHLRSDIKSLIEALDPKKKLKLPAFIFIDELDRCRPSYAVEMLEVIKHFFELENIVFVVATDTEQLQHAVKAVYGEGFDAQTYLGRFFRRRYSLSESSRFEFVKQMVGESYEIKSLEHHHHHH”, for which the “soluble on expression in E. coli” value was “not soluble”. As to “MDVNQFTELITKLQSADNDIRKQAEEVYEKIEGPTKVAALFEAYTHHTNNSDARSTVLVFLRRVLARDWDAIWETLNEENKQRILAKVLEMIVHETELSIKKKIADLISEIASNLIDDSGDMTWGGVLELMDHCLKSEDLTGNYIALLILRGCPIIFGNRLAHFLPTLKVVLEKCMATPDLQIKATAVRAVIAFAVDNDEEKDVVRLMTSLVPNVLQVCNETSDEDDSDGPLGEFAELASSLPKCLNTHMSQVLQVTLAIAGNKEKNEMVRQNAIEVICSYMESAPKGLKKYAPGALGPILETLLSCMTEMDDDVLNEWLNEIEEEEDYEDIPIIAESAIDRVACCINGKVMLPVFLPLVEKLLTSEDWKMKHAALRAFSAVGEGCQRSMEPHIEQIMAHITNYVNDAHPRVQYAACNAIGQMSSDFAPTLQKKCHAAVIPALLESLDRTDVPRVCAHAASALVNFAEECPKSIIGQYLPFILQKLENVLSAVFNRLGDKRYQVVVENIVTAIASVAEAAEELFKEHHARLIPNLVHILQNVGELKELRGKTIECISLIGYAVGKEQFHATAIEILNLLGDGMKDLAIDDPQYSYMISSWTRFCSILGADFAPFLPVVMDPVLRAARYRPDFNIFNNEDVHENEEGVEYHGIGGEKTVGIRTSGLEEKATACDMLVAFAKEMKEAFMPYVVDVYELAIKNLDFGLHDGVRTASAEIMPCLLTCVEKQGLADKRRLWCEFLKALTTSMEEEDDVEILASFMTTIGSCIEVMKTEGIAEEEVQLIISVLLKQLENYGKRMSDRPVEDEDDDDAEAKEELDYFMELEASCLGAISDLTHSLMKEFKGTIFEGMINVFNCAIQLIEGSKQYFERQWGMCLLDDAIEFGVGHMPTRFPKLIPIMYKLLGDEYPEVRQAASYGFGVMAINYHQISDYRNEILSCLEPLAAMIQREDARATEESTVATENAISAFAKIIGNVPLPAEAYGKVVEMFLSWLPTYSDTEESPYIYTCLAELFDKQDAALFGPENQNLPRIFLVCLLSIANDAFNDDDSGNQTKQRIVTILKQIYASFPQFAQQDGIDEHLTSVLQQTLNGQ”, the “soluble on expression in E. coli” value is reported as “not soluble”. In the case of “MDVRQVLHMKGGAGENSYAMNSFIQRQVISITKPITEAAITALYSGDTVTTRLAIADLGCSSGPNALFAVTELIKTVEELRKKMGRENSPEYQIFLNDLPGNDFNAIFRSLPIENDVDGVCFINGVPGSFYGRLFPRNTLHFIHSSYSLMWLSQVPIGIESNKGNIYMANTCPQSVLNAYYKQFQEDHALFLRCRAQEVVPGGRMVLTILGRRSEDRASTECCLIWQLLAMALNQMVSEGLIEEEKMDKFNIPQYTPSPTEVEAEILKEGSFLIDHIEASEIYWSSCTKDGDGGGSVEEEGYNVARCMRAVAEPLLLDHFGEAIIEDVFHRYKLLIIERMSKEKTKFINVIVSLIRKSD” it was “soluble”; in that of “MDVSAYPFFRRDMSWLSFNERVLMEAADRTLPVYDRIKFLSIFSSNLEEFYTVRVAYHQAVLQKRRDRSEAEEDSDADAHILQAIRETVIRQDELYYRIFYDQILPTLEEHGIRLRTHAPTHPDHKAYLRRFFHEEIFPLLYPMLLLPSKVRTFIRSGRVYLAVRLKEKETDEAYSYALLNVPTDGLPRFVELPRLQTDTFYYYSFLEDIIKEHLDVVFPGYEVMDSYSIKVSRDADLLLDAQRPEDLPGEIRKKVKTRKLGAPTRFMYDGRMPDEVLRYICSSCDIDPEEAIRSGNYVNLQDLAMLPNPFAPRLETLTPEPLLSKHLEQAPSLMEGIRRKDYLIHVPYYTYDYVVRLLMEAAISPDVSEIRLTQYRVAENSSIISALEAAAQSGKKVSVFVELKARFDEENNLRLSERMRRSGIRIVYSMPGLKVHAKTALILYHTPAGERPQGIALLSTGNFNETTARIYSDTTLMTANTDIVHDVYRLFRILDGDPEPARFSRLLVARYNMGEAITNLIEREIENVKRGKRGYMLLKMNGLQDKNVITQLYRASEAGVEIDLIVRGICCLVPDMPQSRNIRVTRLVDMYLEHSRIWCFHNGGKEEVFISSADWMKRNLYNRIETACPVLDPALRREIIDILEIQLRDNIKACRIDSSLNNIYKHNSDEKPVRAQAAIYRYLKGKEEATPAAK”, “not soluble”. Consider “MDVSLESLVNSLQATRSTLLSEIEMLNDTEVNVKPRRDKWSIIQILHHLHLVEQSVTSALVYALQKNERNMTPFKDLQLTLDRTHKREAPQQMQPTETLMKKQQGIQLLEHSRQELLHALHSVIDEKDLFENGLKHPVFNDLNLYQWVQFLDLHEQRHLTQLKEAKHAILQR”, for which the “soluble on expression in E. coli” value is on record as “not soluble”. On to “MDVTQLKMLRNAKVVSEIKKGFSIDKKYQVDETYLVRVFPKELLQTRKQEFEIIQALGSQTPFVPRAYDFGCTGGEGYMIIGYVRGEDAENGMFRLSHSEQFKAGFSAGEILREVHKIPLDIPKMNWLDFQTAKFKRKVEELKELEITASFLTETEQFVYENIARLKNRPVCLQHGDFHPANIILKNKKFAGLIDFNRLEFGDPLFDLAKIGFFTTEVSIPFARGNILGYIDKEEVTDFWNLYALYTAMHITSAVNWAAKNESRNFNKLMNYAAKTAASHDNFQKLMPDWMNKEEFK”, for which the “soluble on expression in E. coli” value is reported as “not soluble”. For “MDWEKVGLKMGLEIHQQLDTESKLFCPCRTELTDSEPDHDIVRNLRPTQSELGKFDRAAFEEAMRKLHFHYENYHEETCLVEADEEPPHPLNPEALEIAVTIALLLNMRVVDEFHTMRKQVIDGSNTGGFQRTGLVATDGHLETPQGTVKIENLCLEEDAARRIRETGDGVVFRLDRLGIPLVEITTDPSMSDPQQLREVAYQIGQILRSTRVKRGLGTIRQDLNISIRDGARVEVKGVQDLDLIPEIVEREVKRQLSLVEIRDTLQERGAVVEDKIFDVSEVFADTESRIISSAESVLAVKLRGFDGLIGVEIQPGRRLGTEMADYAKKRGVSGIFHTDELPAYGITEEEVRGLRDAVGASQGDAVVMVAHERVTAENALREVIRRAEMAIQGVPEETRKALPDGNTQYLRPLPTSSRMYLETDIPLFRIEDDLLEGIRRNLPELPSEKKERIMRDYGLSEDLASQLVKRNLVDEFEALTEFRVDTTVIASLLAYTLRELRREGHDVDGLGLDELRDAIKLLEVGKISKDALRDIVACMADEGLAAEDAARKLNLLLLAEDEIESIIQEIVEGNLDMISERGMGAMGPLMGQAMGRLRGRADGKVVNRILREKIQERL”, the “soluble on expression in E. coli” value is recorded as “soluble”. In the case of “MDYDVLILGGGIIGCSVAYELSKYNLNIALIEKDFDIADDVSFVNTAIVYDGSECKDNLMSYLENMGNMMLPEITKKLNVPFKRVGHLTIADNDETVRIIEENYKRAKSRGINNIYLIDEKRAREIEPNYKGEIKKAMYSENIAVTSPYDLAIGFAEIAYDNGVSFRLEEIVLDIQSIAKGFKVTTNKNKFTCRFVINTTPGEHYTIDQDKDYEQKNALKTYYLLLNDEIKEKTSNIVVKLKNEEEFIIQKNTVNGDTLIGINSNNSLGFMKSLKIAKEMINSISRKHVKDIFYDNHNQDRLIIDDSRKNKGYIKVMGNHYGEVTIAPAVSKIICDEIIDKLNCSLNKNFVDKRREFYRFRELSNEERNELISLDKRYGKIVCLCNGISEGEIVDCIRRPLGARTVEGVKRRTGATFGTCHGAYCISKIINILARELEKKPTEIVEDSKNSKVLASRIKEFDRVLEHHHHHH” it was “not soluble”; in that of “MDYRQLHRWDLPPEEAIKVQNELRKKIKLTPYEGEPEYVAGVDLSFPGKEEGLAVIVVLEYPSFKILEVVSERGEITFPYIPGLLAFREGPLFLKAWEKLRTKPDVVVFDGQGLAHPRKLGIASHMGLFIEIPTIGVAKSRLYGTFKMPEDKRCSWSYLYDGEEIIGCVIRTKEGSAPIFVSPGHLMDVESSKRLIKAFTLPGRRIPEPTRLAHIYTQRLKKGLFLEHHHHHH”, “soluble”. In the case of “MDYYRVGTLVNTHGIRGEVKVVVVTDFPEERFKVGQQLSLFKTPDETTGGITVKIAKAREQKGLYFLTFEGLDNINDVERYKGWTIKVPAEALHALPAGEYYYHQIVGLQVVTTADEPLGTIKEILSPGANDVWVVKRDHGQSDVLLPKIPQVIKDVDLDAGVVTVELMEGLIDLEHHHHHH” it was “soluble”; in that of “MEALAMAGVDYQEWGLSIEEWELQESVVPLHLLADDFKEEEQEEDHQDNDDDDRVLDGLAVKQSVTRDIRASVGKFIEQSMSHMIVHLKQLKFLTLLLENFLFTHVLDFLL”, “not soluble”; in that of “MEALGADVTQGLEKGSLITCADNTGARELKVISVHGYSGTKNRHPKAGLGDKITVSVTKGTPEMRRQVLEAVVVRQRKPIRRPDGTRVKFEDNAAVIVDENEDPRGTELKGPIAREVAQRFGSVASAATMIV”, “soluble”.
